Experimental data from article PMC5849714, “Direct coupling of detergent purified human mGlu5 receptor to the heterotrimeric G proteins Gq and Gs” (Scientific Reports, 2018).

Columns and labels:
[1] = molecular target: mGlu5-Δ856 (construct for large-scale purification, devoid of eGFP) (human) (UniProt P41594)
[2] = molecular target: mGlu5-Δ856 (construct for large-scale purification, devoid of eGFP) (human) (UniProt P41594); assay: SEC; purified receptor on Superose 6 increase in MNG3/CHS

Gαqβ1γ2, sequence (P50148 whole entry): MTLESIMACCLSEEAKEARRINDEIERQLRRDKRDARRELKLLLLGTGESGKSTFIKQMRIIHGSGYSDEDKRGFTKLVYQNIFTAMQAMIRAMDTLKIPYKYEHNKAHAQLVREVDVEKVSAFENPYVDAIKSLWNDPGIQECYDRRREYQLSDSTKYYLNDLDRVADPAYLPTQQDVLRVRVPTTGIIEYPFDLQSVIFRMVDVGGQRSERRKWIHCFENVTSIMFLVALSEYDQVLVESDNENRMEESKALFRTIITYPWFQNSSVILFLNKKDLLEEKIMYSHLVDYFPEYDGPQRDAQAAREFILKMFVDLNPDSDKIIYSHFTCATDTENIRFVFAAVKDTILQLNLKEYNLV
Gαqβ1γ2, sequence (P62873 whole entry): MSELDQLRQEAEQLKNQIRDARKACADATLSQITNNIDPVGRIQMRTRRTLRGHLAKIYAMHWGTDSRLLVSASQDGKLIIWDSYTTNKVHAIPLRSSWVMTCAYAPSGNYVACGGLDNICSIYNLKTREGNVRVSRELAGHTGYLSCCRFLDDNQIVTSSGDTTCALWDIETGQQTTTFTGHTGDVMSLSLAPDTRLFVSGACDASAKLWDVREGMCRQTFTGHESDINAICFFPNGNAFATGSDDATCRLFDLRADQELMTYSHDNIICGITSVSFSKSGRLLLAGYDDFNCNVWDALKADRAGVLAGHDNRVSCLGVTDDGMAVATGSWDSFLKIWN
Gαqβ1γ2, sequence (P59768 whole entry): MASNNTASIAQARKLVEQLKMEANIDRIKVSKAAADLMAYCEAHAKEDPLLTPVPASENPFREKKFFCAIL

| Bodipy-FL GTPγS fluorescence, purified receptor in detergent, glutamate and VU0424465 together: increase of the maximum response [1] | stoichiometry N [2] | Substance |
| --- | --- | --- |
| 30% | – | Gαqβ1γ2 (from UniProt P50148 1-359; P62873 1-340; P59768 1-71) (complex) |
| – | 2 | mGlu5-Δ856 (construct for large-scale purification, devoid of eGFP) (from UniProt P41594-2 21-856) (receptor) |
